Measurements published in paper PMC2700736.
Changes are numbered by the printed parent chain. Like-named read-outs stand apart in the source and are kept apart here.

Experiments:
Assay in all cases: filter binding
I-SceI K223I [1] = target: T1, I-SceI K223I (UniProt P03882 1-235, K223I)
T1 sequence: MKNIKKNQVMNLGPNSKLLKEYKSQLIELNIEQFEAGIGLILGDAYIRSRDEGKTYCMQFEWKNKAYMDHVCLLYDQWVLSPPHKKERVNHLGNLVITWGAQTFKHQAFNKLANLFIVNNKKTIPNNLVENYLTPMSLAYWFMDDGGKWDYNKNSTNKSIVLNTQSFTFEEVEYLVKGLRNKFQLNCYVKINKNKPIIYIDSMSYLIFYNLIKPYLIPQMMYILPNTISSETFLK

I-SceI wild-type [2] = target: T2, I-SceI wild-type (UniProt P03882 1-235)
T2 sequence: T1 sequence with I223K

I-SceI K122I [3] = target: T3, I-SceI K122I (UniProt P03882 1-235, K122I)
T3 sequence: T1 sequence with K122I, I223K

I-SceI K223I [4] = target: T1, I-SceI K223I; remark: listed apart in the source
I-SceI wild-type [5] = target: T2, I-SceI wild-type; remark: listed apart in the source
I-SceI K122I [6] = target: T3, I-SceI K122I; remark: listed apart in the source

B1: 94-mer intact hairpin substrate (structured_DNA)
DNA: GGTGAAACACTCGAACGCTAGGGATAACAGGGTAATATAGCCAATCCAATGATTGGCTATATTACCCTGTTATCCCTAGCGTTCGAGTGTTTCA
- Kd (I-SceI K223I [1]): 7.4 ± 1.3 nM
- Kd (I-SceI wild-type [2]): 2.3 ± 0.4 nM
- Kd (I-SceI K122I [3]): 7.3 ± 0.4 nM
- Kd (I-SceI K223I [4]): 15.4 ± 0.3 nM
- Kd (I-SceI wild-type [5]): 14.5 ± 5.7 nM
- Kd (I-SceI K122I [6]): 17.3 ± 0.4 nM

B2: Duplex linear product (upstream cleavage product) (dsDNA)
DNA 1: GGTGAAACACTCGAACGCTAGGGATAA
DNA 2: CCCTAGCGTTCGAGTGTTTCA
- Kd (I-SceI wild-type [2]): 175 ± 48 nM

Binder: CAGGGTAATATAGCCAATCCAATGATTGGCTATATTACCCTGTTAT (structured_DNA) [Hairpin product 46-mer (downstream cleavage product)]
- Kd (I-SceI wild-type [2]): 3.3 ± 0.6 nM

B3: Nicked top DNA strand substrate (structured_DNA)
DNA 1: GGTGAAACACTCGAACGCTAGGGATAA
DNA 2: CAGGGTAATATAGCCAATCCAATGATTGGCTATATTACCCTGTTATCCCTAGCGTTCGAGTGTTTCA
modifications: nick at top-strand cleavage site; 5' phosphate at nick (67-mer)
- Kd (I-SceI wild-type [2]): 4.2 ± 1.1 nM
- Kd (I-SceI wild-type [5]): 19.4 ± 0.7 nM

B4: Nicked bottom DNA strand substrate (structured_DNA)
DNA 1: GGTGAAACACTCGAACGCTAGGGATAACAGGGTAATATAGCCAATCCAATGATTGGCTATATTACCCTGTTAT
DNA 2: CCCTAGCGTTCGAGTGTTTCA
modifications: nick at bottom-strand cleavage site; 5' phosphate at nick (21-mer)
- Kd (I-SceI wild-type [2]): 3.2 ± 0.2 nM
- Kd (I-SceI wild-type [5]): 13.2 ± 2.1 nM
